In article PMC10945584, “Dual recognition of multiple signals in bacterial outer membrane proteins enhances assembly and maintains membrane integrity” (eLife, 2024):
Where “and” joins values, the source holds several entries; their conditions need not be identical. Identical values can stand only once.

Tests used:
[1] = target: the molecule itself; assay: native gel or EMSA; 35S-labeled substrate incubated with E. coli microsomal membranes (EMM) at 30 °C, membranes solubilised in 1.5% DDM, BN-PAGE and radio-imaging
[2] = target: the molecule itself; assay: native gel or EMSA; EMM from E. coli strains solubilised with 1.5% DDM, BN-PAGE and immunoblotting
[3] = target: the molecule itself; assay: SDS-PAGE of unboiled samples after folding into detergent micelles; 5 μM urea-denatured OmpC in 10 mM phosphate pH 8.0, 2 mM EDTA, 1 mM glycine, 3.4 mM DDM, 37 °C up to 36 h; samples boiled or kept at room temperature

Protein | stoichiometry N [1] | other results
35S-labeled LamB, in vitro translated (natural protein, Escherichia coli, UniProt P02943 1-446, looked up, 35S-methionine label, LamB (maltoporin), E. coli; also called maltoporin; source: in vitro translated (rabbit reticulocyte lysate, 35S-methionine)) MMITLRKLPLAVAVAAGVMSAQAMAVDFHGYARSGIGWTGSGGEQQCFQTTGAQSKYRLGNECETYAELKLGQEVWKEGDKSFYFDTNVAYSVAQQNDWEATDPAFREANVQGKNLIEWLPGSTIWAGKRFYQRHDVHMIDFYYWDISGPGAGLENIDVGFGKLSLAATRSSEAGGSSSFASNNIYDYTNETANDVFDVRLAQMEINPGGTLELGVDYGRANLRDNYRLVDGASKDGWLFTAEHTQSVLKGFNKFVVQYATDSMTSQGKGLSQGSGVAFDNEKFAYNINNNGHMLRILDHGAISMGDNWDMMYVGMYQDINWDNDNGTKWWTVGIRPMYKWTPIMSTVMEIGYDNVESQRTGDKNNQYKITLAQQWQAGDSIWSRPAIRVFATYAKWDEKWGYDYTGNADNNANFGKAVPADFNGGSFGRGDSDEWTFGAQMEIWW | 3 | –
OmpF, endogenous (natural protein, Escherichia coli (endogenous), UniProt P02931 23-362, looked up, OmpF, E. coli; also called endogenous OmpF; trimeric OmpF; source: endogenous, E. coli membrane fractions (EMM)) AEIYNKDGNKVDLYGKAVGLHYFSKGNGENSYGGNGDMTYARLGFKGETQINSDLTGYGQWEYNFQGNNSEGADAQTGNKTRLAFAGLKYADVGSFDYGRNYGVVYDALGYTDMLPEFGGDTAYSDDFFVGRVGGVATYRNSNFFGLVDGLNFAVQYLGKNERDTARRSNGDGVGGSISYEYEGFGIVGAYGAADRTNLQEAQPLGNGKKAEQWATGLKYDANNIYLAANYGETRNATPITNKFTNTSGFANKTQDVLLVAQYQFDFGLRPSIAYTKSKAKDVEGIGDVDLVNYFEVGATYYFNKNMSTYVDYIINQIDSDNKLGVGSDDTVAVGIVYQF | – | stoichiometry N [2]: 3 and 2
35S-labeled OmpF, in vitro translated (natural protein, Escherichia coli, UniProt P02931 1-362, looked up, 35S-methionine label, OmpF, E. coli; source: in vitro translated (rabbit reticulocyte lysate, 35S-methionine)) MMKRNILAVIVPALLVAGTANAAEIYNKDGNKVDLYGKAVGLHYFSKGNGENSYGGNGDMTYARLGFKGETQINSDLTGYGQWEYNFQGNNSEGADAQTGNKTRLAFAGLKYADVGSFDYGRNYGVVYDALGYTDMLPEFGGDTAYSDDFFVGRVGGVATYRNSNFFGLVDGLNFAVQYLGKNERDTARRSNGDGVGGSISYEYEGFGIVGAYGAADRTNLQEAQPLGNGKKAEQWATGLKYDANNIYLAANYGETRNATPITNKFTNTSGFANKTQDVLLVAQYQFDFGLRPSIAYTKSKAKDVEGIGDVDLVNYFEVGATYYFNKNMSTYVDYIINQIDSDNKLGVGSDDTVAVGIVYQF | 3 | –
35S-labeled OmpC(Y286A), in vitro translated (natural protein, Escherichia coli, UniProt P06996 1-367, looked up, 35S-methionine label, OmpC, E. coli; also called internal signal mutant; source: in vitro translated (rabbit reticulocyte lysate, 35S-methionine)) MKVKVLSLLVPALLVAGAANAAEVYNKDGNKLDLYGKVDGLHYFSDNKDVDGDQTYMRLGFKGETQVTDQLTGYGQWEYQIQGNSAENENNSWTRVAFAGLKFQDVGSFDYGRNYGVVYDVTSWTDVLPEFGGDTYGSDNFMQQRGNGFATYRNTDFFGLVDGLNFAVQYQGKNGNPSGEGFTSGVTNNGRDALRQNGDGVGGSITYDYEGFGIGGAISSSKRTDAQNTAAYIGNGDRAETYTGGLKYDANNIYLAAQYTQTYNATRVGSLGWANKAQNFEAVAQAQFDFGLRPSLAYLQSKGKNLGRGYDDEDILKYVDVGATYYFNKNMSTYVDYKINLLDDNQFTRDAGINTDNIVALGLVYQF | 3 | –
35S-labeled OmpC, in vitro translated (natural protein, Escherichia coli, UniProt P06996 1-367, looked up, 35S-methionine label, OmpC, E. coli; also called 35S-OmpC; OmpC(WT); source: in vitro translated (rabbit reticulocyte lysate, 35S-methionine)) MKVKVLSLLVPALLVAGAANAAEVYNKDGNKLDLYGKVDGLHYFSDNKDVDGDQTYMRLGFKGETQVTDQLTGYGQWEYQIQGNSAENENNSWTRVAFAGLKFQDVGSFDYGRNYGVVYDVTSWTDVLPEFGGDTYGSDNFMQQRGNGFATYRNTDFFGLVDGLNFAVQYQGKNGNPSGEGFTSGVTNNGRDALRQNGDGVGGSITYDYEGFGIGGAISSSKRTDAQNTAAYIGNGDRAETYTGGLKYDANNIYLAAQYTQTYNATRVGSLGWANKAQNFEAVAQYQFDFGLRPSLAYLQSKGKNLGRGYDDEDILKYVDVGATYYFNKNMSTYVDYKINLLDDNQFTRDAGINTDNIVALGLVYQF | 3 | –
FLAG-OmpC expressed in E. coli (natural protein, Escherichia coli, UniProt P06996 22-367, looked up, OmpC, E. coli; Two plasmid names are printed for FLAG-OmpC; also called FLAG-OmpC(WT); FLAG-tagged form of OmpC; not shown: FLAG, N-terminal, kept) AEVYNKDGNKLDLYGKVDGLHYFSDNKDVDGDQTYMRLGFKGETQVTDQLTGYGQWEYQIQGNSAENENNSWTRVAFAGLKFQDVGSFDYGRNYGVVYDVTSWTDVLPEFGGDTYGSDNFMQQRGNGFATYRNTDFFGLVDGLNFAVQYQGKNGNPSGEGFTSGVTNNGRDALRQNGDGVGGSITYDYEGFGIGGAISSSKRTDAQNTAAYIGNGDRAETYTGGLKYDANNIYLAAQYTQTYNATRVGSLGWANKAQNFEAVAQYQFDFGLRPSLAYLQSKGKNLGRGYDDEDILKYVDVGATYYFNKNMSTYVDYKINLLDDNQFTRDAGINTDNIVALGLVYQF | – | stoichiometry N [2]: 2 and 3
OmpC, His6-tagged, purified, urea-denatured (natural protein, Escherichia coli, UniProt P06996 22-367, looked up, OmpC, E. coli; also called OmpC(WT); native OmpC protein; source: E. coli BL21(DE3)*, inclusion bodies, purified in 6 M urea (Ni-NTA)) AEVYNKDGNKLDLYGKVDGLHYFSDNKDVDGDQTYMRLGFKGETQVTDQLTGYGQWEYQIQGNSAENENNSWTRVAFAGLKFQDVGSFDYGRNYGVVYDVTSWTDVLPEFGGDTYGSDNFMQQRGNGFATYRNTDFFGLVDGLNFAVQYQGKNGNPSGEGFTSGVTNNGRDALRQNGDGVGGSITYDYEGFGIGGAISSSKRTDAQNTAAYIGNGDRAETYTGGLKYDANNIYLAAQYTQTYNATRVGSLGWANKAQNFEAVAQYQFDFGLRPSLAYLQSKGKNLGRGYDDEDILKYVDVGATYYFNKNMSTYVDYKINLLDDNQFTRDAGINTDNIVALGLVYQF | – | stoichiometry N [3]: 3 and 2
